Patent publication US20090298765A1 (Takeda / Millennium, published 2009)
Where two headings read alike, the source gives them in different places. Starred links: 1 amine or outer side, 2 acyl side, 3 side chain; linkers in the order of their positions; H or OH if unused. Non-standard residues stand in square brackets, D forms with d. No end group written: not given here. *: point of attachment. Ala(2-Qui) = 2-quinolylalanine, O=C([C@H](Cc1ccc2ccccc2n1)N[*:1])[*:2]; Phe(3,4-Cl2) = N[C@@H](Cc1ccc(Cl)c(Cl)c1)C(=O)O; Arg(Me) = CNC(=N)NCCC[C@H](N)C(=O)O; Fmoc = O=C(OCC1c2ccccc2-c2ccccc21)*; Lys(Me2) = CN(C)CCCC[C@H](N)C(=O)O; Cha = N[C@@H](CC1CCCCC1)C(=O)O; Abu = CC[C@H](N)C(=O)O; azaGly = NNC(=O)O

B1: des(1)-[D-Tyr2,AzaGly7,Arg(Me)9]MS10 (peptide)
peptide: [dY]WNSF[azaGly]L[Arg(Me)]F-NH2
modifications: N-terminus assumed
SMILES: CNC(=N)NCCC[C@H](NC(=O)[C@H](CC(C)C)NC(=O)NNC(=O)[C@H](Cc1ccccc1)NC(=O)[C@H](CO)NC(=O)[C@H](CC(N)=O)NC(=O)[C@H](Cc1c[nH]c2ccccc12)NC(=O)[C@H](N)Cc1ccc(O)cc1)C(=O)N[C@@H](Cc1ccccc1)C(N)=O
notes: also called Compound No. 222
B2: [Lys(Me2)9]MS10 (peptide)
peptide: YNWNSFGL[Lys(Me2)]F-NH2
B3: [D-Tyr1,Cha6,Arg(Me)9]MS10 (peptide)
peptide: YNWNSXGLRF
modifications: D-Tyr1; Cha6; Arg(Me)9; C-terminal amide
notes: also called Compound No. 203
B4: des(1)-Fmoc-MS10 (peptide)
peptide: Fmoc-NWNSFGLRF-NH2
B5: [D-Tyr1,Cha6,Arg(Me)9]MS10 (Compound No. 172) (peptide)
peptide: YNWNSXGLRF
modifications: D-Tyr1; Cha6; Arg(Me)9; C-terminal amide
B6: [D-Tyr1,Ala7,Arg(Me)9]MS10 (Compound No. 173) (peptide)
peptide: [dY]NWNSFAL[Arg(Me)]F-NH2
modifications: N-terminus assumed
SMILES: CNC(=N)NCCC[C@H](NC(=O)[C@H](CC(C)C)NC(=O)[C@H](C)NC(=O)[C@H](Cc1ccccc1)NC(=O)[C@H](CO)NC(=O)[C@H](CC(N)=O)NC(=O)[C@H](Cc1c[nH]c2ccccc12)NC(=O)[C@H](CC(N)=O)NC(=O)[C@H](N)Cc1ccc(O)cc1)C(=O)N[C@@H](Cc1ccccc1)C(N)=O
B7: [Abu8]MS10 (peptide)
peptide: YNWNSFG[Abu]RF-NH2
modifications: N-terminus assumed
SMILES: CC[C@H](NC(=O)CNC(=O)[C@H](Cc1ccccc1)NC(=O)[C@H](CO)NC(=O)[C@H](CC(N)=O)NC(=O)[C@H](Cc1c[nH]c2ccccc12)NC(=O)[C@H](CC(N)=O)NC(=O)[C@@H](N)Cc1ccc(O)cc1)C(=O)N[C@@H](CCCNC(=N)N)C(=O)N[C@@H](Cc1ccccc1)C(N)=O
notes: also called Compound No. 187
B8: des(1-3)-Fmoc-MS10 (peptide)
peptide: Fmoc-NSFGLRF-NH2
B9: [Ala(2-Qui)10]MS10 (peptide)
peptide: YNWNSFGLR[Ala(2-Qui)]-NH2
modifications: N-terminus assumed
SMILES: CC(C)C[C@H](NC(=O)CNC(=O)[C@H](Cc1ccccc1)NC(=O)[C@H](CO)NC(=O)[C@H](CC(N)=O)NC(=O)[C@H](Cc1c[nH]c2ccccc12)NC(=O)[C@H](CC(N)=O)NC(=O)[C@@H](N)Cc1ccc(O)cc1)C(=O)N[C@@H](CCCNC(=N)N)C(=O)N[C@@H](Cc1ccc2ccccc2n1)C(N)=O
notes: also called Compound No. 201
B10: des(1)-[D-Tyr2,Arg(Me)9]MS10 (peptide)
peptide: [dY]WNSFGL[Arg(Me)]F-NH2
modifications: N-terminus assumed
SMILES: CNC(=N)NCCC[C@H](NC(=O)[C@H](CC(C)C)NC(=O)CNC(=O)[C@H](Cc1ccccc1)NC(=O)[C@H](CO)NC(=O)[C@H](CC(N)=O)NC(=O)[C@H](Cc1c[nH]c2ccccc12)NC(=O)[C@H](N)Cc1ccc(O)cc1)C(=O)N[C@@H](Cc1ccccc1)C(N)=O
notes: also called Compound No. 217
B11: des(1)-[D-Tyr2,Thr3,AzaGly7,Arg(Me)9]MS10 (peptide)
peptide: [dY]TNSF[azaGly]L[Arg(Me)]F-NH2
notes: also called Compound No. 241
B12: [Ala8]MS10 (peptide)
peptide: YNWNSFGARF-NH2
B13: [Lys2]MS10 (peptide)
peptide: YKWNSFGLRF-NH2
B14: Metastin (peptide)
peptide: GTSLSPPPESSGSRQQPGLSAPHSRQIPAPQGAVLVQREKDLPNYNWNSFGLRF
B15: des(1)-[D-Tyr2,D-Trp3,Arg(Me)9]MS10 (peptide)
peptide: [dY][dW]NSFGL[Arg(Me)]F-NH2
notes: also called Compound No. 224
B16: [D-Tyr1,Cha3,AzaGly7,Arg(Me)9]MS10 (peptide)
peptide: [dY]N[Cha]NSF[azaGly]L[Arg(Me)]F-NH2
modifications: N-terminus assumed
SMILES: CNC(=N)NCCC[C@H](NC(=O)[C@H](CC(C)C)NC(=O)NNC(=O)[C@H](Cc1ccccc1)NC(=O)[C@H](CO)NC(=O)[C@H](CC(N)=O)NC(=O)[C@H](CC1CCCCC1)NC(=O)[C@H](CC(N)=O)NC(=O)[C@H](N)Cc1ccc(O)cc1)C(=O)N[C@@H](Cc1ccccc1)C(N)=O
notes: also called Compound No. 190
B17: des(1-3)-Fmoc-[Arg(Me)9]MS10 (peptide)
peptide: Fmoc-NSFGL[Arg(Me)]F-NH2
B18: des(1)-[D-Tyr2,D-Trp3,AzaGly7,Arg(Me)9]MS10 (peptide)
peptide: [dY][dW]NSF[azaGly]L[Arg(Me)]F-NH2
modifications: N-terminus assumed
SMILES: CNC(=N)NCCC[C@H](NC(=O)[C@H](CC(C)C)NC(=O)NNC(=O)[C@H](Cc1ccccc1)NC(=O)[C@H](CO)NC(=O)[C@H](CC(N)=O)NC(=O)[C@@H](Cc1c[nH]c2ccccc12)NC(=O)[C@H](N)Cc1ccc(O)cc1)C(=O)N[C@@H](Cc1ccccc1)C(N)=O
notes: also called Compound No. 242
B19: [Phe(3,4Cl2)10]MS10 (peptide)
peptide: YNWNSFGLR[Phe(3,4-Cl2)]-NH2
notes: also called Compound No. 199
B20: [Lys1]MS10 (peptide)
peptide: KNWNSFGLRF-NH2
B21: [Hph10]MS10 (peptide)
peptide: YNWNSFGLRX
modifications: Hph10; C-terminal amide
B22: [Ser1]MS10 (peptide)
peptide: SNWNSFGLRF-NH2
B23: [D-Tyr1,Ala4,Arg(Me)9]MS10 (peptide)
peptide: [dY]NWASFGL[Arg(Me)]F-NH2
modifications: N-terminus assumed
SMILES: CNC(=N)NCCC[C@H](NC(=O)[C@H](CC(C)C)NC(=O)CNC(=O)[C@H](Cc1ccccc1)NC(=O)[C@H](CO)NC(=O)[C@H](C)NC(=O)[C@H](Cc1c[nH]c2ccccc12)NC(=O)[C@H](CC(N)=O)NC(=O)[C@H](N)Cc1ccc(O)cc1)C(=O)N[C@@H](Cc1ccccc1)C(N)=O
notes: also called Compound No. 210
B24: [D-Tyr1,Ala5,Arg(Me)9]MS10 (peptide)
peptide: [dY]NWNAFGL[Arg(Me)]F-NH2
modifications: N-terminus assumed
SMILES: CNC(=N)NCCC[C@H](NC(=O)[C@H](CC(C)C)NC(=O)CNC(=O)[C@H](Cc1ccccc1)NC(=O)[C@H](C)NC(=O)[C@H](CC(N)=O)NC(=O)[C@H](Cc1c[nH]c2ccccc12)NC(=O)[C@H](CC(N)=O)NC(=O)[C@H](N)Cc1ccc(O)cc1)C(=O)N[C@@H](Cc1ccccc1)C(N)=O
B25: [D-Tyr1,Arg(Me)9,Trp10]MS10 (peptide)
peptide: [dY]NWNSFGL[Arg(Me)]W-NH2
modifications: N-terminus assumed
SMILES: CNC(=N)NCCC[C@H](NC(=O)[C@H](CC(C)C)NC(=O)CNC(=O)[C@H](Cc1ccccc1)NC(=O)[C@H](CO)NC(=O)[C@H](CC(N)=O)NC(=O)[C@H](Cc1c[nH]c2ccccc12)NC(=O)[C@H](CC(N)=O)NC(=O)[C@H](N)Cc1ccc(O)cc1)C(=O)N[C@@H](Cc1c[nH]c2ccccc12)C(N)=O
notes: also called Compound No. 174
B26: [D-Tyr1,Ile3,Arg(Me)9]MS10 (peptide)
peptide: [dY]NINSFGL[Arg(Me)]F-NH2
modifications: N-terminus assumed
SMILES: CC[C@H](C)[C@H](NC(=O)[C@H](CC(N)=O)NC(=O)[C@H](N)Cc1ccc(O)cc1)C(=O)N[C@@H](CC(N)=O)C(=O)N[C@@H](CO)C(=O)N[C@@H](Cc1ccccc1)C(=O)NCC(=O)N[C@@H](CC(C)C)C(=O)N[C@@H](CCCNC(=N)NC)C(=O)N[C@@H](Cc1ccccc1)C(N)=O
notes: also called Compound No. 206
B27: [D-Tyr1,Thr4,Arg(Me)9]MS10 (peptide)
peptide: [dY]NWTSFGL[Arg(Me)]F-NH2
notes: also called Compound No. 208
B28: [D-Tyr1,Thr5,Arg(Me)9]MS10 (peptide)
peptide: [dY]NWNTFGL[Arg(Me)]F-NH2
modifications: N-terminus assumed
SMILES: CNC(=N)NCCC[C@H](NC(=O)[C@H](CC(C)C)NC(=O)CNC(=O)[C@H](Cc1ccccc1)NC(=O)[C@@H](NC(=O)[C@H](CC(N)=O)NC(=O)[C@H](Cc1c[nH]c2ccccc12)NC(=O)[C@H](CC(N)=O)NC(=O)[C@H](N)Cc1ccc(O)cc1)[C@@H](C)O)C(=O)N[C@@H](Cc1ccccc1)C(N)=O
notes: also called Compound No. 211
B29: [D-Tyr1,AzaGly7,Arg(Me)9]MS10 (peptide)
peptide: [dY]NWNSF[azaGly]L[Arg(Me)]F-NH2
notes: also called Compound No. 232

How the values were obtained:
[1] = biological target: T1, human OT7T175 (metastin receptor) (human, UniProt Q969F8 1-398); assay: cell-based or functional assay
[2] = biological target: T1, human OT7T175 (metastin receptor); assay: cell-based or functional assay; remark: listed apart in the source
[3] = biological target: T1, human OT7T175 (metastin receptor); assay: competition with Cy-5 metastin (40-54) on hOT7T175-CHO cells, FMAT
[4] = biological target: T1, human OT7T175 (metastin receptor); assay: cell-based or functional assay; remark: listed apart in the source

T1 sequence (Q969F8 whole entry L364H): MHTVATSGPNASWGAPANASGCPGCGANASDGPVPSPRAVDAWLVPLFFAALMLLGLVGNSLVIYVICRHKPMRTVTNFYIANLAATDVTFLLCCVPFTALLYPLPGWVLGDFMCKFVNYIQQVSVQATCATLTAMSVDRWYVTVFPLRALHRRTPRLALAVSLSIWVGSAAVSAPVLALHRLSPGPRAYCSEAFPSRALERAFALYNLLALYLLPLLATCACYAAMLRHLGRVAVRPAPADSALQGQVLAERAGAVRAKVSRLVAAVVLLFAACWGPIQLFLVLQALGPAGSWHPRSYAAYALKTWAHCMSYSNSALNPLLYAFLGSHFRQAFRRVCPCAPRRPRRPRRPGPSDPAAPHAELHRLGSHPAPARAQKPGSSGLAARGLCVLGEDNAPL

Binder | Ca ion level-increasing activity (FLIPR) [1] | Ca ion level-increasing activity (FLIPR, 40 s) [2] [EC50/MS10 EC50] | IC50 [3] [nM] | Ca ion level-increasing activity (FLIPR) [4]
B1 | 10 x Metastin (1-54) | 2.7 | 33 | 
B2 |  |  |  | 0.5 x Metastin (1-54)
B3 | 10 x Metastin (1-54) |  | 37 | 
B4 |  |  |  | 5 x Metastin (1-54)
B5 |  |  |  | 1 x Metastin (1-54)
B6 |  |  |  | 1 x Metastin (1-54)
B7 | 1 x Metastin (1-54) | 1.9 | 720 | 
B8 |  |  |  | 1 x Metastin (1-54)
B9 | 1 x Metastin (1-54) |  | 820 | 
B10 | 20 x Metastin (1-54) | 3.1 | 250 | 
B11 | 1 x Metastin (1-54) | 5.3 | 56 | 
B12 |  |  |  | 1 x Metastin (1-54)
B13 |  |  |  | 1 x Metastin (1-54)
B14 |  |  |  | 1 x Metastin (1-54)
B15 | 2 x Metastin (1-54) |  | 140 | 
B16 | 10 x Metastin (1-54) |  | 12 | 
B17 |  |  |  | 1 x Metastin (1-54)
B18 | 2 x Metastin (1-54) | 1.4 | 70 | 
B19 | 3 x Metastin (1-54) |  | 470 | 
B20 |  |  |  | 1 x Metastin (1-54)
B21 |  |  |  | 1 x Metastin (1-54)
B22 |  |  |  | 1 x Metastin (1-54)
B23 | 1 x Metastin (1-54) | 9.3 | 730 | 
B24 | 10 x Metastin (1-54) | 1.1 | 36 | 
B25 | 10 x Metastin (1-54) | 2.3 | 420 | 
B26 | 10 x Metastin (1-54) | 4.8 | 85 | 
B27 | 1 x Metastin (1-54) | 7.3 | 830 | 
B28 | 10 x Metastin (1-54) | 1.3 | 44 | 
B29 | 3 x Metastin (1-54) | 3.9 | 49 | 
